This is an account of results in FireProtDB (doi:10.1016/j.bpc.2007.01.006).

For this data set the following is noted: Bos taurus, pH 2, 25 °C, Glycine-HCl 0.05 M, KCl 0.1 M, reversible: Yes, whole UniProt chain shown.
The mark [1] stands for this setting: GdnHCl, Fluorescence, transition: 3.

Where “and” joins values, the source holds several entries; their conditions need not be identical. Identical values can stand only once.

B1: Beta-lactoglobulin wild type, P02754 (protein)
chain: MKCLLLALALTCGAQALIVTQTMKGLDIQKVAGTWYSLAMAASDISLLDAQSAPLRVYVEELKPTPEGDLEILLQKWENGECAQKKIIAEKTKIPAVFKIDALNENKVLVLDTDYKKYLLFCMENSAEPEQSLACQCLVRTPEVDDEALEKFDKALKALPMHIRLSFNPTQLEEQCHI
On to B1, for which the denaturant m value was 4.97 kcal/mol/M and 4.1 kcal/mol/M under setting [1]; 1.62 kcal/mol/M (Urea, Absorbance); 1.06 kcal/mol/M and 1.08 kcal/mol/M and 1.1 kcal/mol/M (Urea, CD); 1.56 kcal/mol/M (Urea, Fluorescence). Also, the “denaturant midpoint (higher = more stable)” value is, setting by setting: under setting [1], 1.44 M and 3.14 M; (Urea, Absorbance) 5.3 M; (Urea, CD) 6 M and 6.34 M and 6.55 M; (Urea, Fluorescence) 5.42 M. Also, the unfolding free energy runs as follows: under setting [1], 7.15 kcal/mol and 4.88 kcal/mol; (Urea, Absorbance) 8.58 kcal/mol; (Urea, CD) 6.41 kcal/mol and 6.84 kcal/mol and 7.17 kcal/mol; (Urea, Fluorescence) 8.41 kcal/mol.
